In assay [1] the target is T1, BCL11A-S (short isoform of BCL11A), wild-type, Q9H165-3.
T1 chain: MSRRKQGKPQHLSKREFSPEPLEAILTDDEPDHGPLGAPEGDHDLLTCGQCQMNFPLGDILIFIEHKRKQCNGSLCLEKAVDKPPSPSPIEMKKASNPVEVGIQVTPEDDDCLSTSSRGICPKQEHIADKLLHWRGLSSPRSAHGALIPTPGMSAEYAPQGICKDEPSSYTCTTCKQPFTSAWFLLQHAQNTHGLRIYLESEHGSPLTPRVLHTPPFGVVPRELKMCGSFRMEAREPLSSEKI
Briefly: BRET assay. The conditions noted are these: chain shown with the change; HEK293 cells; donor Renilla luciferase fusion, acceptor YFP fusion; n = 3; parent: est. 0.36; read off a plot. (In general: In BRET a luciferase serves as donor, and the signal depends on an acceptor being close.)

The target in assay [2] is T2, BCL11A-L (long isoform of BCL11A), wild-type, Q9H165-2.
T2 chain: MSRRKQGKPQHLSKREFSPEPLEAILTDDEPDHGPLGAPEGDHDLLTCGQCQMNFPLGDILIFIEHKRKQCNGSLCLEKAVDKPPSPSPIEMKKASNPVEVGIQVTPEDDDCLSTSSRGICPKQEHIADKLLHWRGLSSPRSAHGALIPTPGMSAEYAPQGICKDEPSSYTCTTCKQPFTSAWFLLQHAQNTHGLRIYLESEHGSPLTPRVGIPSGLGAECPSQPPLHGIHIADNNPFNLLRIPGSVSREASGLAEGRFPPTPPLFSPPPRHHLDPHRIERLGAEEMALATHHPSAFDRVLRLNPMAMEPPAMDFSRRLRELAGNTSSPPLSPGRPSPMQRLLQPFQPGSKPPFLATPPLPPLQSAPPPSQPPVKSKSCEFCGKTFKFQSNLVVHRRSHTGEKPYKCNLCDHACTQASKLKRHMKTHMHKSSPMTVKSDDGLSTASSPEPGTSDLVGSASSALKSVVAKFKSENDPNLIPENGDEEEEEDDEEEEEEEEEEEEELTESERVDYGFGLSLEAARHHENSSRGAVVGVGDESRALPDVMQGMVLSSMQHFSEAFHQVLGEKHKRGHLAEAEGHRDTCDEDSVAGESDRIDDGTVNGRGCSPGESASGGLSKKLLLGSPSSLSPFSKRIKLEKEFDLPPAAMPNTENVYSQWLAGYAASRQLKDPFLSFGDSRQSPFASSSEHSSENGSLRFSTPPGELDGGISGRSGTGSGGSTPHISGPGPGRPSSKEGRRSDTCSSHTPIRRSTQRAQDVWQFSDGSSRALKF
Briefly: BRET assay. As to conditions: chain shown with the change; HEK293 cells; donor Renilla luciferase fusion, acceptor YFP fusion; n = 3; parent: est. 0.30; read off a plot.

B1: BCL11A-L (long isoform of BCL11A), wild-type, Q9H165-2 p.His66Gln (protein)
chain: MSRRKQGKPQHLSKREFSPEPLEAILTDDEPDHGPLGAPEGDHDLLTCGQCQMNFPLGDILIFIEQKRKQCNGSLCLEKAVDKPPSPSPIEMKKASNPVEVGIQVTPEDDDCLSTSSRGICPKQEHIADKLLHWRGLSSPRSAHGALIPTPGMSAEYAPQGICKDEPSSYTCTTCKQPFTSAWFLLQHAQNTHGLRIYLESEHGSPLTPRVGIPSGLGAECPSQPPLHGIHIADNNPFNLLRIPGSVSREASGLAEGRFPPTPPLFSPPPRHHLDPHRIERLGAEEMALATHHPSAFDRVLRLNPMAMEPPAMDFSRRLRELAGNTSSPPLSPGRPSPMQRLLQPFQPGSKPPFLATPPLPPLQSAPPPSQPPVKSKSCEFCGKTFKFQSNLVVHRRSHTGEKPYKCNLCDHACTQASKLKRHMKTHMHKSSPMTVKSDDGLSTASSPEPGTSDLVGSASSALKSVVAKFKSENDPNLIPENGDEEEEEDDEEEEEEEEEEEEELTESERVDYGFGLSLEAARHHENSSRGAVVGVGDESRALPDVMQGMVLSSMQHFSEAFHQVLGEKHKRGHLAEAEGHRDTCDEDSVAGESDRIDDGTVNGRGCSPGESASGGLSKKLLLGSPSSLSPFSKRIKLEKEFDLPPAAMPNTENVYSQWLAGYAASRQLKDPFLSFGDSRQSPFASSSEHSSENGSLRFSTPPGELDGGISGRSGTGSGGSTPHISGPGPGRPSSKEGRRSDTCSSHTPIRRSTQRAQDVWQFSDGSSRALKF
As to B1, the response in assay [1] was found to be 0.013; in assay [2], 0.11.

B2: BCL11A-L (long isoform of BCL11A), wild-type, Q9H165-2 p.Cys48Phe (protein)
chain: MSRRKQGKPQHLSKREFSPEPLEAILTDDEPDHGPLGAPEGDHDLLTFGQCQMNFPLGDILIFIEHKRKQCNGSLCLEKAVDKPPSPSPIEMKKASNPVEVGIQVTPEDDDCLSTSSRGICPKQEHIADKLLHWRGLSSPRSAHGALIPTPGMSAEYAPQGICKDEPSSYTCTTCKQPFTSAWFLLQHAQNTHGLRIYLESEHGSPLTPRVGIPSGLGAECPSQPPLHGIHIADNNPFNLLRIPGSVSREASGLAEGRFPPTPPLFSPPPRHHLDPHRIERLGAEEMALATHHPSAFDRVLRLNPMAMEPPAMDFSRRLRELAGNTSSPPLSPGRPSPMQRLLQPFQPGSKPPFLATPPLPPLQSAPPPSQPPVKSKSCEFCGKTFKFQSNLVVHRRSHTGEKPYKCNLCDHACTQASKLKRHMKTHMHKSSPMTVKSDDGLSTASSPEPGTSDLVGSASSALKSVVAKFKSENDPNLIPENGDEEEEEDDEEEEEEEEEEEEELTESERVDYGFGLSLEAARHHENSSRGAVVGVGDESRALPDVMQGMVLSSMQHFSEAFHQVLGEKHKRGHLAEAEGHRDTCDEDSVAGESDRIDDGTVNGRGCSPGESASGGLSKKLLLGSPSSLSPFSKRIKLEKEFDLPPAAMPNTENVYSQWLAGYAASRQLKDPFLSFGDSRQSPFASSSEHSSENGSLRFSTPPGELDGGISGRSGTGSGGSTPHISGPGPGRPSSKEGRRSDTCSSHTPIRRSTQRAQDVWQFSDGSSRALKF
As for B2, the response in assay [1] was found to be 0.009; in assay [2], 0.065.

B3: BCL11A-L (long isoform of BCL11A), wild-type, Q9H165-2 p.Thr47Pro (protein)
chain: MSRRKQGKPQHLSKREFSPEPLEAILTDDEPDHGPLGAPEGDHDLLPCGQCQMNFPLGDILIFIEHKRKQCNGSLCLEKAVDKPPSPSPIEMKKASNPVEVGIQVTPEDDDCLSTSSRGICPKQEHIADKLLHWRGLSSPRSAHGALIPTPGMSAEYAPQGICKDEPSSYTCTTCKQPFTSAWFLLQHAQNTHGLRIYLESEHGSPLTPRVGIPSGLGAECPSQPPLHGIHIADNNPFNLLRIPGSVSREASGLAEGRFPPTPPLFSPPPRHHLDPHRIERLGAEEMALATHHPSAFDRVLRLNPMAMEPPAMDFSRRLRELAGNTSSPPLSPGRPSPMQRLLQPFQPGSKPPFLATPPLPPLQSAPPPSQPPVKSKSCEFCGKTFKFQSNLVVHRRSHTGEKPYKCNLCDHACTQASKLKRHMKTHMHKSSPMTVKSDDGLSTASSPEPGTSDLVGSASSALKSVVAKFKSENDPNLIPENGDEEEEEDDEEEEEEEEEEEEELTESERVDYGFGLSLEAARHHENSSRGAVVGVGDESRALPDVMQGMVLSSMQHFSEAFHQVLGEKHKRGHLAEAEGHRDTCDEDSVAGESDRIDDGTVNGRGCSPGESASGGLSKKLLLGSPSSLSPFSKRIKLEKEFDLPPAAMPNTENVYSQWLAGYAASRQLKDPFLSFGDSRQSPFASSSEHSSENGSLRFSTPPGELDGGISGRSGTGSGGSTPHISGPGPGRPSSKEGRRSDTCSSHTPIRRSTQRAQDVWQFSDGSSRALKF
Consider B3, for which the response in assay [1] turned out to be 0.001; in assay [2], 0.11.
